Paper PMC12404239

Target: CoV OC43 spike glycoprotein (S) (human coronavirus OC43) (UniProt P36334)
Assay: […], running buffer TBS, […]

Substance: CoV OC43 spike glycoprotein (S) (from UniProt P36334 14-1263) (natural protein)
- stoichiometry N: 3
